According to patent publication US20230167185A1:

What was measured:
[1] = molecular target: UU24 (Clostridium tetani (tetanus toxin))
[2] = molecular target: UU70 (Clostridium tetani (tetanus toxin))
[3] = molecular target: UU71 (Clostridium tetani (tetanus toxin))
[4] = molecular target: UU72 (Clostridium tetani (tetanus toxin))
[5] = molecular target: UU73 (Clostridium tetani (tetanus toxin))
[6] = molecular target: UU74 (Clostridium tetani (tetanus toxin))

Binder	Kd [1] [nM]	koff [1] [s⁻¹]	kon [1] [M⁻¹ s⁻¹]	Kd [2] [nM]	koff [2] [s⁻¹]	kon [2] [M⁻¹ s⁻¹]	koff [3] [s⁻¹]	kon [3] [M⁻¹ s⁻¹]	koff [4] [s⁻¹]	kon [4] [M⁻¹ s⁻¹]	Kd [5] [nM]	koff [5] [s⁻¹]	kon [5] [M⁻¹ s⁻¹]	Kd [6] [nM]	koff [6] [s⁻¹]	kon [6] [M⁻¹ s⁻¹]	Kd [3] [nM]	Kd [4] [nM]
IBIIICI scFv (scFv) scFv: EVRLLQSGAALVRPGASVKLSCTASGFNIKDFNIHWVKQRPEQGLEWIGRIDPENGDAEYVPKFQVRATMTTDTSSNTVYLHLSSLTSGDTAVYYCTTGSYDLDVEYWGQGTTLTVSSGGGGSGGGGSGGGGSGGGGSELQMTQSPSSLSASLGDTVTITCHASQNINVWLSWYQQRPGNIPKLLIYKASTLHTGVPSRFRGSGSGTGFTLTISSLQPEDIATYYCQQGQSYPLTFGAGTKLELK	0.12	2.3e-05	190000	0.16	3.7e-05	230000	< 1e-05	230000	< 1e-05	250000	0.34	6.7e-05	200000	0.12	3.3e-05	280000	–	–
14GIIICII scFv (scFv) scFv: QVQLQQPGAELVMPGASVNLSCKASGYTFTDYWMHWVKQRPGQGLEWIGEIDPSDNFSNLNQNFRGKATLTVDKSSRTAFLQLSSLTSEDSAVYYCAVEDYWGQGTTLTVSSGGGGSGGGGSGGGGSGGGGSDIVMTQATPSVLVTPGEAVSISCRASRSLLHSNGITYLYWFLQRPGQSPQVLIYRMSNLVSGVPDRFSGSGSGTAFTLRISRVEAEDVGVYYCMQHLEFPYTFGGGTKLEIK	0.3	0.0002	660000	0.29	0.00019	650000	0.00032	540000	0.00034	570000	0.87	0.00044	510000	1.7	0.00095	570000	0.6	0.6
